{"source": "patent US20250276090A1", "about": "“Methods and Compositions for Genetically Modifying a Cell” (Intellia Therapeutics, Inc., priority 2022, published 2025)", "assay_type_in_all_cases": "cell-based, human", "key": {"[1]": {"test_system": "CIITA locus", "assay": "NGS percent editing with SpyCas9 and Nme2 base editor, CIITA (Example 9)", "conditions": "CIITA BE guide, Day 7", "text": "(§1) Genomic DNA was extracted using QuickExtract™ DNA Extraction Solution (Lucigen, Cat. No. QE09050) according to manufacturer's protocol.\n(§2) To quantitatively determine the efficiency of editing at the target location in the genome, deep sequencing was utilized to identify the presence of insertions, deletions, and substitution introduced by gene editing. PCR primers were designed around the target site within the gene of interest (e.g., HLA-A) and the genomic area of interest was amplified. Primer sequence design was done as is standard in the field.\n(§3) Additional PCR was performed according to the manufacturer's protocols (Illumina) to add chemistry for sequencing. The amplicons were sequenced on an Illumina MiSeq instrument. The reads were aligned to the human reference genome (e.g., hg38) after eliminating those having low quality scores. Reads that overlapped the target region of interest were re-aligned to the local genome sequence to improve the alignment. Then the number of wild type reads versus the number of reads which contain C-to-T mutations, C-to-A/G mutations or indels was calculated. Insertions and deletions were scored in a 20 bp region centered on the predicted Cas9 cleavage site. Indel percentage is defined as the total number of sequencing reads with one or more base inserted or deleted within the 20 bp scoring region divided by the total number of sequencing reads, including wild type. C-to-T mutations or C-to-A/G mutations were scored in a 40 bp region including 10 bp upstream and 10 bp downstream of the 20 bp sgRNA target sequence. The C-to-T editing percentage is defined as the total number of sequencing reads with either one or more C-to-T mutations within the 40 bp region divided by the total number of sequencing reads, including wild type. The percentage of C-to-A/G mutations are calculated similarly.\n(§4) Isolated, cryopreserved T cells were thawed in a water bath and plated at a density of 1×10^6 cells/mL in TCAM media containing CTS OpTmizer T Cell Expansion SFM and T Cell Expansion Supplement (ThermoFisher Cat. A1048501), 1× Penicillin-Streptomycin, 1× Glutamax, 10 mM HEPES, 200 U/mL recombinant human interleukin-2 (Peprotech, Cat. 200-02), 5 ng/mL recombinant human interleukin 7 (Peprotech, Cat. 200-07), and 5 ng/mL recombinant human interleukin 15 (Peprotech, Cat. 200-15) and 2.5% human AB serum (GeminiBio, Cat. 100-512). Technical replicates were prepared using isolated T cells from multiple donors. Data shown is from a selected donor.\n(§5) LNPs were generally prepared as described in Example 1. Lipid nanoparticles in this example were prepared with molar ratios of 35 Lipid A: 47.5 cholesterol: 15 DSPC: 2.5 PEG2k-DMG. LNPs were made with a lipid amine to RNA phosphate (N:P) molar ratio of about 6. LNPs were formulated with a single RNA species or coformulated with multiple RNA species as described in Table 32. LNPs were delivered to T cells in TCAM media containing ApoE3 (Peprotech, Cat. 350-02) as described in Table 32.\n(§6) On Day 1 (e.g., about 24 hours post thaw) cells were harvested and activated with TransAct™ (1:100 dilution, Miltenyi Biotec). LNPs were applied at the doses listed in Table 32 on Day 3 along with 0.5 uM of Compound 1.\n(§7) Beginning on Day 4, cells were split and media refreshed regularly. On Day 7, a portion of cells were harvested for sequencing analysis at TRAC, TRBC1, TRBC2 and CIITA loci. NGS analysis was performed as described in Example 1. Table 33 and FIG. 15 show mean percent editing for these cells."}, "[2]": {"test_system": "AAVS1", "assay": "GFP insertion at AAVS1 in T cells with SpyCas9 RNP and gapped AAV templates, flow cytometry (Example 6)", "conditions": "Template OG, day 7 post-editing", "protocol": "AAVS1 guide RNAs were designed and screened to identify insertion SpyCas9 guides using a series of gapped AAV GFP templates (A, B, C, D, OG) each designed for a subset of the guide RNAs. Insertion efficacy in T cells was examined by assessing GFP expression by flow cytometry. The percentage of T cells positive for green fluorescent protein (“% GFP+”) was assayed by flow cytometry, following AAVS1 editing by mRNA and AAV delivery.\nHealthy human donor apheresis was obtained commercially (Hemacare) from two donors (#110042863 and #110040377) and cells were washed and resuspended in MACS Buffer containing 2 mM EDTA and 0.5% Fetal Bovine Serum (FBS) in PBS. Cells were washed twice by centrifugation followed by CD3 negative selection using Easy Sep Human T Cell Isolation Kit (Stemcell, Cat. 100-0695) and separated using Easy Sep Magnets (Stemcell, Cat.18000). T cells were aliquoted and cryopreserved for future use in Cryostor® CS10 (StemCell Technologies Cat. 07930).\nAAVS1 guide RNAs were assessed for insertion efficacy in T cells by assessing GFP expression by flow cytometry. The percentage of T cells positive for green fluorescent protein (“% GFP+”) was assayed by flow cytometry, following AAVS1 editing by mRNA and AAV delivery.\nAAVS1 targeting sgRNAs corresponding to the flanking homology regions of Gap Templates A, B, C, D, & OG (SEQ ID NOs: 299-303) were removed from their storage plates and denatured for 2 minutes at 95° C. before cooling at room temperature for 10 minutes. RNP mixture of 20 μM sgRNA and 10 μM Cas9-NLS protein (SEQ ID NO: 296) was prepared and incubated at 25° C. for 10 minutes. 2.5 μL of RNP mixture was combined with 250,000 cells in […] P3 electroporation Buffer (Lonza). 22 μL of RNP/cell mix was transferred to the corresponding wells of a Lonza shuttle 96-well electroporation plate. Cells were electroporated in duplicate with the manufacturer's pulse code. T cell media described above without any cytokines was added to the cells immediately post electroporation. T cells were rested for 10 minutes at 37° C. Gap Template AAVs were prepared in 48 well plates (Corning, Cat.353078)) with T cell media described above containing 2× cytokines, 400 U/mL recombinant human interleukin-2 (Peprotech, Cat. 200-02), 10 ng/ml recombinant human interleukin 7 (Peprotech, Cat. 200-07), and 10 ng/ml recombinant human interleukin 15 (Peprotech, Cat. 200-15) cytokines. The multiplicity of infection (MOI) of AAVs was 3×10^^5. AAVs were added to the T cells within 15 minutes post electroporation and incubated for 48 hours at 37° C. AAV-6 vectors encoded AAVS1 Template A, B, C, D or OG. Two days post-electroporation, cells were split 1:2 in 48 well plates replenished with T cell media with 1× cytokines as described above. sgRNAs were tested each with AAV constructs and gapped template.\nOn day 7 post-editing, cells were phenotyped by flow cytometry to determine GFP expression to confirm integration of AAV at their GAP template site. Briefly, T cells were washed in FACS buffer containing 2 mM EDTA (Invitrogen, Cat.15575020) and 1% FBS in PBS followed by re-suspending in FACS buffer containing 1:10,000 dilution of DAPI (Biolegend, Cat.422801) nuclear stain. Cells were then processed on a Cytoflex flow cytometer (Beckman Coulter) and analyzed using the FlowJo software package. T cells were gated based on size, shape, viability, and GFP expression. Values that were not determined by the flow cytometer were denoted as “ND”. Table 18 and FIGS. 8A-8B show mean percentage of T cells positive for GFP expression."}, "[3]": {"test_system": "TRBC1 locus", "assay": "NGS percent editing with SpyCas9 and Nme2 base editor, TRBC1 (Example 9)", "conditions": "TRBC1 BE guide, Day 7", "text": "as §1, §2, §3, §4, §5, §6, §7"}}, "note": "Strand notation (5' to 3'): a small letter for the sugar, then the base; units joined by * are phosphorothioate-linked, units joined directly phosphodiester-linked; [ ] holds rarer units or linkages, { } end groups; capitals alone tell only the bases. m = 2'-O-methyl; r = 2'-OH (RNA)"}
{"molecule": "G026584 (nucleic acid, chemical modifications, further chemistry not given here) guide: UCAAAGUACCCUACAGGAGGACCAGUUGUAGCUCCCUGAAACCGUUGCUACAAUAAGGCCGUCGAAAGAUGUGCCGCAACGCUCUGCCUUCUGGCAUCGUU", "values": [{"measurement": "Mean percent editing, C to A/G", "setting": "[1]; BE mRNA 0.5 ug/mL", "value": 1.2, "unit": "%"}, {"measurement": "Mean percent editing, C to T", "setting": "[1]; BE mRNA 0.5 ug/mL", "value": 91.8, "unit": "%"}, {"measurement": "Mean percent editing, Indels", "setting": "[1]; BE mRNA 0.5 ug/mL", "value": 0.9, "unit": "%"}, {"measurement": "Mean percent editing, C to A/G", "setting": "[1]; BE mRNA 1.0 ug/mL", "value": 1.4, "unit": "%"}, {"measurement": "Mean percent editing, C to T", "setting": "[1]; BE mRNA 1.0 ug/mL", "value": 91.6, "unit": "%"}, {"measurement": "Mean percent editing, Indels", "setting": "[1]; BE mRNA 1.0 ug/mL", "value": 0.6, "unit": "%"}]}
{"molecule": "G013543: AAVS1 SpyCas9 guide RNA, guide sequence SEQ ID NO: 257, chr19:55115755-55115775 (nucleic acid) guide: mU*mG*mU*rCrCrCrUrArGrUrGrGrCrCrCrCrArCrUrGrGrUrUrUrUrArGrAmGmCmUmAmGmAmAmAmUmAmGmCrArArGrUrUrArArArArUrArArGrGrCrUrArGrUrCrCrGrUrUrArUrCrAmAmCmUmUmGmAmAmAmAmAmGmUmGmGmCmAmCmCmGmAmGmUmCmGmGmUmGmCmU*mU*mU*mU", "values": [{"measurement": "Mean percentage of T cells positive for GFP expression", "setting": "[2]; Donor 1", "value": 65.25, "unit": "%"}, {"measurement": "Mean percentage of T cells positive for GFP expression", "setting": "[2]; Donor 2", "value": 64.40, "unit": "%"}]}
{"molecule": "G028986: TRBC sgRNA for Nme2 Base Editor (nucleic acid, chemical modifications; listed as RNA; modified_base 1: mod_base = OTHER; note = 2'-O-methyl modified nucleotide with phosphorothioate linkage; modified_base 2: mod_base = OTHER; modified_base 3: mod_base = OTHE, TRBC sgRNA for Nme2 Base Editor) guide: GUGUCCUACCAGCAAGGGGUCCUGGUUGUAGCUCCCUGAAACCGUUGCUACAAUAAGGCCGUCGAAAGAUGUGCCGCAACGCUCUGCCUUCUGGCAUCGUU", "values": [{"measurement": "Mean percent editing, C to A/G", "setting": "[3]; BE mRNA 0.5 ug/mL", "value": 1.0, "unit": "%"}, {"measurement": "Mean percent editing, C to T", "setting": "[3]; BE mRNA 0.5 ug/mL", "value": 94.4, "unit": "%"}, {"measurement": "Mean percent editing, Indels", "setting": "[3]; BE mRNA 0.5 ug/mL", "value": 0.3, "unit": "%"}, {"measurement": "Mean percent editing, C to A/G", "setting": "[3]; BE mRNA 1.0 ug/mL", "value": 0.9, "unit": "%"}, {"measurement": "Mean percent editing, C to T", "setting": "[3]; BE mRNA 1.0 ug/mL", "value": 93.3, "unit": "%"}, {"measurement": "Mean percent editing, Indels", "setting": "[3]; BE mRNA 1.0 ug/mL", "value": 1.0, "unit": "%"}]}
